Ka data for one substance are collected here from article PMC5955432.

Bounds are passed on as bounds.

This assay concerns the target Skp1-FBW7 complex (UniProt Q969H0). As to the kind of experiment: ITC; MicroCal VP-ITC, 30°C; cell: 15 μM purified Skp1-FBW7 complex in 50 mM phosphate buffer, pH 7.4; syringe: 321 μM FIRΔexon2; 10 μL injections, 20 s, 150 s delay.
Sequence of UniProt Q969H0 (Q969H0 whole entry, chain 1 of 2): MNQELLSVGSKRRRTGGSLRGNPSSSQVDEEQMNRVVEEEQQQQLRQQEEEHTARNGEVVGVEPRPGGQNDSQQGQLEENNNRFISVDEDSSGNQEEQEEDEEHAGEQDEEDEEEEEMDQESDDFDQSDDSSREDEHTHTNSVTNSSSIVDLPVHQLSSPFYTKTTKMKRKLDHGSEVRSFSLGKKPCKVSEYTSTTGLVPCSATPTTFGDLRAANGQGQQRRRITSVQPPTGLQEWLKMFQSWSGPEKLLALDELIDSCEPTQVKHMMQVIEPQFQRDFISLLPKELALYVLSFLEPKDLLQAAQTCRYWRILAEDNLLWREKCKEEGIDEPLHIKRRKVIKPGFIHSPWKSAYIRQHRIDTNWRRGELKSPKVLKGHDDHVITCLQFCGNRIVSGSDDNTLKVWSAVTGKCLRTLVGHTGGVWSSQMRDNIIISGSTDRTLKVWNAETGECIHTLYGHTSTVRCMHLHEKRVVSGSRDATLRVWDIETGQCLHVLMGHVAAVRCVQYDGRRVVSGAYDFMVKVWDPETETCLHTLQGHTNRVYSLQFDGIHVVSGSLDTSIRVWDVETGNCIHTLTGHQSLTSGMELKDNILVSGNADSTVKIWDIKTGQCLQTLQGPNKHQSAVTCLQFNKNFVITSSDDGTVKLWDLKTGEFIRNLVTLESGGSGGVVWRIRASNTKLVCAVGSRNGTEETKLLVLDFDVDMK
Sequence of UniProt Q969H0 (P63208 whole entry, chain 2 of 2, further chain): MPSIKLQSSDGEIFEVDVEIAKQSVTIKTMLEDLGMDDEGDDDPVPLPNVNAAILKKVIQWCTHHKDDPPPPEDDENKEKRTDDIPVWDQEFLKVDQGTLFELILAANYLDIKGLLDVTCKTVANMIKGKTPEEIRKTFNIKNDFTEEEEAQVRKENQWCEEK

Regarding “FIRΔexon2 (alternative splicing variant of far upstream element binding protein 1 (FUBP1) interacting repressor, FIR / PUF60, lacking exon 2) (natural protein)”, the Ka was above 1e+08 M⁻¹.
